Assay results as given in paper PMC5424160 (2017).

Target: GST-CDK9 (Homo sapiens (Human), UniProt P50750)
Experiment: GST pull-down

Sequence of GST-CDK9 (P50750 whole entry): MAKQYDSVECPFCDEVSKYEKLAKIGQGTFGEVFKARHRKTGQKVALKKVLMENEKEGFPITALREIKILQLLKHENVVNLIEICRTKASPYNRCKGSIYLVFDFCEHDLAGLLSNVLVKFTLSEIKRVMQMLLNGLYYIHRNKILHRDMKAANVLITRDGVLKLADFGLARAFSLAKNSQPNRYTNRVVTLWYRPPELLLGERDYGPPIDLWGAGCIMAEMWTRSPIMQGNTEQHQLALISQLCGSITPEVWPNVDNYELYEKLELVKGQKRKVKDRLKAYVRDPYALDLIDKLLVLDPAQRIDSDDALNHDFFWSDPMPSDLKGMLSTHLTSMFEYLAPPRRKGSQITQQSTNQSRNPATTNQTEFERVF

binding result: no binding
B1: His-Menin (protein)
chain: MGLKAAQKTLFPLRSIDDVVRLFAAELGREEPDLVLLSLVLGFVEHFLAVNRVIPTNVPELTFQPSPAPDPPGGLTYFPVADLSIIAALYARFTAQIRGAVDLSLYPREGGVSSRELVKKVSDVIWNSLSRSYFKDRAHIQSLFSFITGTKLDSSGVAFAVVGACQALGLRDVHLALSEDHAWVVFGPNGEQTAEVTWHGKGNEDRRGQTVNAGVAERSWLYLKGSYMRCDRKMEVAFMVCAINPSIDLHTDSLELLQLQQKLLWLLYDLGHLERYPMALGNLADLEELEPTPGRPDPLTLYHKGIASAKTYYRDEHIYPYMYLAGYHCRNRNVREALQAWADTATVIQDYNYCREDEEIYKEFFEVANDVIPNLLKEAASLLEAGEERPGEQSQGTQSQGSALQDPECFAHLLRFYDGICKWEEGSPTPVLHVGWATFLVQSLGRFEGQVRQKVRIVSREAEAAEAEEPWGEEAREGRRRGPRRESKPEEPPPPKKPALDKGLGTGQGAVSGPPRKPPGTVAGTARGPEGGSTAQVPAPTASPPPEGPVLTFQSEKMKGMKELLVATKINSSAIKLQLTAQSQVQMKKQKVSTPSDYTLSFLKRQRKGL
